B1: CPEB3 Ribozyme (parent)
chain: GGGGGCCACAGCAGAAGCGUUCACGUCGCGGCCCCUGUCAGAUUCUGGUGAAUCUGCGAAUUCUGCUGU

Variants of: B1
Assay: self-cleavage, relative activity (ratio to wild type); higher = more cleavage; co-transcriptional

**Q.** For GGGGGCCACAGCAGAAGCGUUCACGUCGCGGCCCCUGUCAGAUGCUGGUGAAUCUGCGAAUUCUACUGU [U44G G65A], which self-cleavage is on record?
**A.** 0.812

**Q.** With GGGGGCCACAGCAGAAGCGUUCACGUCGCGGCCCCUGUCAGAUGCUGGUGAAUCUGCGAAUUCUCCUGU [U44G G65C] as the variant, how does the self-cleavage read?
**A.** 0.445

**Q.** For GGGGGCCACAGCAGAAGCGUUCACGUCGCGGCCCCUGUCAGAUGCUGGUGAAUCUGCGAAUUCUUCUGU [U44G G65U], which self-cleavage is on record?
**A.** 0.674

**Q.** For GGGGGCCACAGCAGAAGCGUUCACGUCGCGGCCCCUGUCAGAUGCUGGUGAAUCCGCGAAUUCUGCUGU [U44G U55C], which self-cleavage is on record?
**A.** 0.512

**Q.** Which self-cleavage does the source give for GGGGGCCACAGCAGAAGCGUUCACGUCGCGGCCCCUGUCAGAUUAUGGUGCAUCUGCGAAUUCUGCUGU [C45A A51C] here?
**A.** 0.924

**Q.** For GGGGGCCACAGCAGAAGCGUUCACGUCGCGGCCCCUGUCAGAUUAUGGUGGAUCUGCGAAUUCUGCUGU [C45A A51G], which self-cleavage is on record?
**A.** 1.02

**Q.** For GGGGGCCACAGCAGAAGCGUUCACGUCGCGGCCCCUGUCAGAUGCUGGGGAAUCUGCGAAUUCUGCUGU [U44G U49G], which self-cleavage is on record?
**A.** 0.927

**Q.** With GGGGGCCACAGCAGAAGCGUUCACGUCGCGGCCCCUGUCAGAUGCUGGUGAAUCUGCGAAUCCUGCUGU [U44G U62C] as the variant, how does the self-cleavage read?
**A.** 0.842

**Q.** For GGGGGCCACAGCAGAAGCGUUCACGUCGCGGCCCCUGUCAGAUUAUGGUGAAUCUGCGAAUUCUGGUGU [C45A C66G], which self-cleavage is on record?
**A.** 0.788

**Q.** Which self-cleavage does the source give for GGGGGCCACAGCAGAAGCGUUCACGUCGCGGCCCCUGUCAGAUGCCGGUGAAUCUGCGAAUUCUGCUGU [U44G U46C] here?
**A.** 0.928

**Q.** With GGGGGCCACAGCAGAAGCGUUCACGUCGCGGCCCCUGUCAGAUGCGGGUGAAUCUGCGAAUUCUGCUGU [U44G U46G] as the variant, how does the self-cleavage read?
**A.** 0.909

**Q.** Which self-cleavage does the source give for GGGGGCCACAGCAGAAGCGUUCACGUCGCGGCCCCUGUCAGAUGCAGGUGAAUCUGCGAAUUCUGCUGU [U44G U46A] here?
**A.** 0.978

**Q.** For GGGGGCCACAGCAGAAGCGUUCACGUCGCGGCCCCUGUCAGAUGCUGGUGAAUCUGCGAAUUCCGCUGU [U44G U64C], which self-cleavage is on record?
**A.** 0.754

**Q.** With GGGGGCCACAGCAGAAGCGUUCACGUCGCGGCCCCUGUCAGAUGCUGGUGAAUCUGCGAAUUCGGCUGU [U44G U64G] as the variant, how does the self-cleavage read?
**A.** 0.84

**Q.** With GGGGGCCACAGCAGAAGCGUUCACGUCGCGGCCCCUGUCAGAUUAUGGUGAAUCUCCGAAUUCUGCUGU [C45A G56C] as the variant, how does the self-cleavage read?
**A.** 0.482

**Q.** With GGGGGCCACAGCAGAAGCGUUCACGUCGCGGCCCCUGUCAGAUUAUGGUGAAUCUGCGAAUUAUGCUGU [C45A C63A] as the variant, how does the self-cleavage read?
**A.** 0.817

**Q.** With GGGGGCCACAGCAGAAGCGUUCACGUCGCGGCCCCUGUCAGAUGCUGGUGAAACUGCGAAUUCUGCUGU [U44G U53A] as the variant, how does the self-cleavage read?
**A.** 0.755

**Q.** Which self-cleavage does the source give for GGGGGCCACAGCAGAAGCGUUCACGUCGCGGCCCCUGUCAGAUGCUGGUGAACCUGCGAAUUCUGCUGU [U44G U53C] here?
**A.** 0.749

**Q.** Which self-cleavage does the source give for GGGGGCCACAGCAGAAGCGUUCACGUCGCGGCCCCUGUCAGAUGCUGGUGAAUCUGCGAAUUCUGCAGU [U44G U67A] here?
**A.** 0.883

**Q.** With GGGGGCCACAGCAGAAGCGUUCACGUCGCGGCCCCUGUCAGAUGCUGGUGAAUCUGCGAAUUCUGCCGU [U44G U67C] as the variant, how does the self-cleavage read?
**A.** 0.977

**Q.** Which self-cleavage does the source give for GGGGGCCACAGCAGAAGCGUUCACGUCGCGGCCCCUGUCAGAUGCUGGUGAAUCUGCGAAUUCUGCGGU [U44G U67G] here?
**A.** 1.01

**Q.** For GGGGGCCACAGCAGAAGCGUUCACGUCGCGGCCCCUGUCAGAUUAUGGUGAAUCUGCGAAUUCUGCUGU [C45A], which self-cleavage is on record?
**A.** 0.984

**Q.** Which self-cleavage does the source give for GGGGGCCACAGCAGAAGCGUUCACGUCGCGGCCCCUGUCAGAUUAUGGUGAAUCUGGGAAUUCUGCUGU [C45A C57G] here?
**A.** 0.252

**Q.** Which self-cleavage does the source give for GGGGGCCACAGCAGAAGCGUUCACGUCGCGGCCCCUGUCAGAUGCUGGUGAAUCUGCGAAUUCUGCUCU [U44G G68C] here?
**A.** 1.01

**Q.** Which self-cleavage does the source give for GGGGGCCACAGCAGAAGCGUUCACGUCGCGGCCCCUGUCAGAUGCUGGUGAAUCUGCGAAUUCUGCUUU [U44G G68U] here?
**A.** 1.03

**Q.** For GGGGGCCACAGCAGAAGCGUUCACGUCGCGGCCCCUGUCAGAUGCUGGUGAAUCUGCGAAUUCUGCUAU [U44G G68A], which self-cleavage is on record?
**A.** 0.942

**Q.** With GGGGGCCACAGCAGAAGCGUUCACGUCGCGGCCCCUGUCAGAUUAUGGUAAAUCUGCGAAUUCUGCUGU [C45A G50A] as the variant, how does the self-cleavage read?
**A.** 1.02

**Q.** For GGGGGCCACAGCAGAAGCGUUCACGUCGCGGCCCCUGUCAGAUGCUGGUGAAUCUGCGAAUUCUGCUGA [U44G U69A], which self-cleavage is on record?
**A.** 1.01

**Q.** Which self-cleavage does the source give for GGGGGCCACAGCAGAAGCGUUCACGUCGCGGCCCCUGUCAGAUGCUGGUGAAUCUGCGAAUUCUGCUGC [U44G U69C] here?
**A.** 1.04

**Q.** With GGGGGCCACAGCAGAAGCGUUCACGUCGCGGCCCCUGUCAGAUGCUGGUGAAUCUGCGAAUUCUGCUGG [U44G U69G] as the variant, how does the self-cleavage read?
**A.** 1.04

**Q.** Which self-cleavage does the source give for GGGGGCCACAGCAGAAGCGUUCACGUCGCGGCCCCUGUCAGAUUAUGGUGAUUCUGCGAAUUCUGCUGU [C45A A52U] here?
**A.** 0.919

**Q.** Which self-cleavage does the source give for GGGGGCCACAGCAGAAGCGUUCACGUCGCGGCCCCUGUCAGAUGCUGGUGAAUCUGCGAAGUCUGCUGU [U44G U61G] here?
**A.** 0.82

**Q.** With GGGGGCCACAGCAGAAGCGUUCACGUCGCGGCCCCUGUCAGAUGCUGGUGAAUCUGCGAACUCUGCUGU [U44G U61C] as the variant, how does the self-cleavage read?
**A.** 0.649

**Q.** Which self-cleavage does the source give for GGGGGCCACAGCAGAAGCGUUCACGUCGCGGCCCCUGUCAGAUUAUGGUGAAUGUGCGAAUUCUGCUGU [C45A C54G] here?
**A.** 0.562

**Q.** Which self-cleavage does the source give for GGGGGCCACAGCAGAAGCGUUCACGUCGCGGCCCCUGUCAGAUUAUGGUGAAUUUGCGAAUUCUGCUGU [C45A C54U] here?
**A.** 0.926

**Q.** Which self-cleavage does the source give for GGGGGCCACAGCAGAAGCGUUCACGUCGCGGCCCCUGUCAGAUUAUGUUGAAUCUGCGAAUUCUGCUGU [C45A G48U] here?
**A.** 0.976

**Q.** For GGGGGCCACAGCAGAAGCGUUCACGUCGCGGCCCCUGUCAGAUUAUGCUGAAUCUGCGAAUUCUGCUGU [C45A G48C], which self-cleavage is on record?
**A.** 1.01

**Q.** Which self-cleavage does the source give for GGGGGCCACAGCAGAAGCGUUCACGUCGCGGCCCCUGUCAGAUUAUGGUGAAUCUGCGCAUUCUGCUGU [C45A A59C] here?
**A.** 0.613

**Q.** For GGGGGCCACAGCAGAAGCGUUCACGUCGCGGCCCCUGUCAGAUUAUGGUGAAUCUGCGUAUUCUGCUGU [C45A A59U], which self-cleavage is on record?
**A.** 0.793

Source: the RNAGym collection of RNA variant scans (doi:10.7554/elife.80360)
